The values below are quoted from earlier work in PMC10280637.

A word on the Kd: it is the equilibrium constant for the complex coming apart.

This data set concerns the target IL-17A (Homo sapiens) (UniProt Q16552).

Chain of IL-17A (Homo sapiens) (Q16552 24-155): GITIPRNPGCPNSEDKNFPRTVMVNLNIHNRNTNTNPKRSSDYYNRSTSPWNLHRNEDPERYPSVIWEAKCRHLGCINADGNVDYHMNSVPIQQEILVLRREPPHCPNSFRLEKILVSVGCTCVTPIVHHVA

In the case of Secukinumab, the Kd was 0.06 nM.
